Source: US20160122418A1

Legend:
[1] = biological target: F protein on intact RSV particles (Example 10, strain or isolate not stated) (RSV, strain not stated); experiment: competition ELISA; RSV particles pre-incubated with control mAb at 20 µg/mL (the reference); competitor (coating mAb): AR201
[2] = biological target: F protein on intact RSV particles (Example 10, strain or isolate not stated) (RSV, strain not stated); experiment: competition ELISA; RSV particles pre-incubated with control mAb at 20 µg/mL (the reference); competitor (coating mAb): palivizumab
[3] = biological target: F protein of RSV reference strain RSV-B (ATCC VR 1580) (RSV-B (ATCC VR 1580)) (UniProt P13843); experiment: cell-based or functional assay
Sequence of F protein of RSV reference strain RSV-B (ATCC VR 1580) (RSV-B (ATCC VR 1580)) (P13843 26-574): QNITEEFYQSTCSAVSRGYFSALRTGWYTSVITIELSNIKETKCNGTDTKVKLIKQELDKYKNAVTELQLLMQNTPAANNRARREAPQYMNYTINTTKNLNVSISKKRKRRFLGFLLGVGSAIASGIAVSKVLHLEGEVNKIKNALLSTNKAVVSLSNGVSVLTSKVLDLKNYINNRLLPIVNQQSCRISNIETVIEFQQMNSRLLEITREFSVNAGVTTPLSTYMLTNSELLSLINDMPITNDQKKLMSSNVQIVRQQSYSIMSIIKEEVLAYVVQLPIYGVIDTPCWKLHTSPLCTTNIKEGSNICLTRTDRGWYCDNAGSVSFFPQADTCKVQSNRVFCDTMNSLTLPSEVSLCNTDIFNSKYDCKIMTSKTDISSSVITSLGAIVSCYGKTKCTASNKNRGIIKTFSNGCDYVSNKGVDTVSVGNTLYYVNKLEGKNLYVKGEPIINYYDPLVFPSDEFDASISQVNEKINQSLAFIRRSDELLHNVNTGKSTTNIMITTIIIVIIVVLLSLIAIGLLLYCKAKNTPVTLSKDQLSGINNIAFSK

[4] = biological target: F protein of RSV reference strain RSV-A Long (ATCC VR-26) (RSV-A Long (ATCC VR-26)) (UniProt P12568); experiment: cell-based or functional assay
Sequence of F protein of RSV reference strain RSV-A Long (ATCC VR-26) (RSV-A Long (ATCC VR-26)) (P12568 26-574): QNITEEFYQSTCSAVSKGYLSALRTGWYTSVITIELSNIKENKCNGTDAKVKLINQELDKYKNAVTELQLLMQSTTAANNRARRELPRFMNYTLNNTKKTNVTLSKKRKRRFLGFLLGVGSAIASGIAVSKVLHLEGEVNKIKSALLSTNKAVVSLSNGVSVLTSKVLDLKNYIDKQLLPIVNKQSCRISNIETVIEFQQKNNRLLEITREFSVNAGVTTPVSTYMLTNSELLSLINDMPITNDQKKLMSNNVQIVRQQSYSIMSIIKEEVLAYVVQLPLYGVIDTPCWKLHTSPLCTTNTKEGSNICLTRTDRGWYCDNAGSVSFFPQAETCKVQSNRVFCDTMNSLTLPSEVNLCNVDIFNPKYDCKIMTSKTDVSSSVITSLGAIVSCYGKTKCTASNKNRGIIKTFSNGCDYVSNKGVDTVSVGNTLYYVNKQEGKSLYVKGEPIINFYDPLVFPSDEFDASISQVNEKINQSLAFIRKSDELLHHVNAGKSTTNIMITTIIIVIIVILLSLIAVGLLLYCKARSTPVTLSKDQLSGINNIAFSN

Row | Substance | % binding of RSV to the coating mAb relative to control IgG [1] | % binding of RSV to the coating mAb relative to control IgG [2] | Estimated half-maximal effective antibody concentration (ng/mL), plaque neutralization on Vero cells [3] | Estimated half-maximal effective antibody concentration (ng/mL), plaque neutralization on Vero cells [4]
1 | unrelated fully human monoclonal IgG1 antibody (control) | 100% | 100% | > 1000 ng/mL | > 1000 ng/mL
2 | palivizumab (antibody) |  |  | 200 ng/mL | 100 ng/mL
